Data from the supplement of paper PMC11246515.
± gives the standard deviation of the averaged measurements.

Experiment: total protein half-life in vivo (active degradation + dilution); higher = more stable protein
[1] = E. coli NCM3722 delta-clpP delta-lon delta-hslV, growth: N-lim chemostat, doubling time 6 h
[2] = E. coli NCM3722 delta-clpP, growth: N-lim chemostat, doubling time 6 h
[3] = E. coli NCM3722 delta-hslV, growth: N-lim chemostat, doubling time 6 h
[4] = E. coli NCM3722 delta-lon, growth: N-lim chemostat, doubling time 6 h
[5] = E. coli NCM3722 delta-smpB, growth: N-lim chemostat, doubling time 6 h
[6] = wild type E. coli NCM3722, growth: C-lim chemostat, doubling time 3 h
[7] = wild type E. coli NCM3722, growth: C-lim chemostat, doubling time 6 h
[8] = wild type E. coli NCM3722, growth: C-lim chemostat, doubling time 12 h
[9] = wild type E. coli NCM3722, growth: N-lim chemostat, doubling time 6 h
[10] = wild type E. coli NCM3722, growth: N-lim chemostat, doubling time 12 h
[11] = wild type E. coli NCM3722, growth: P-lim chemostat, doubling time 6 h
[12] = wild type E. coli NCM3722, growth: P-lim chemostat, doubling time 12 h

Sequence	total protein half-life in vivo [1]	total protein half-life in vivo [2]	total protein half-life in vivo [3]	total protein half-life in vivo [4]	total protein half-life in vivo [5]	total protein half-life in vivo [6]	total protein half-life in vivo [7]	total protein half-life in vivo [8]	total protein half-life in vivo [9]	total protein half-life in vivo [10]	total protein half-life in vivo [11]	total protein half-life in vivo [12]
MTDLIQRPRRLRKSPALRAMFEETTLSLNDLVLPIFVEEEIDDYKAVEAMPGVMRIPEKHLAREIERIANAGIRSVMTFGISHHTDETGSDAWREDGLVARMSRICKQTVPEMIVMSDTCFCEYTSHGHCGVLCEHGVDNDATLENLGKQAVVAAAAGADFIAPSAAMDGQVQAIRQALDAAGFKDTAIMSYSTKFASSFYGPFREAAGSALKGDRKSYQMNPMNRREAIRESLLDEAQGADCLMVKPAGAYLDIVRELRERTELPIGAYQVSGEYAMIKFAALAGAIDEEKVVLESLGSIKRAGADLIFSYFALDLAEKKILR [P0ACB2]	5.37 ± 0.27 h	5.78 ± 1.1 h	4.92 ± 0.25 h	5.46 ± 0.23 h	4.71 ± 0.18 h	2.99 ± 0.082 h	5.43 ± 0.14 h	9.8 ± 1.4 h	5.01 ± 0.34 h	8.03 ± 0.4 h	5.96 ± 0.23 h	11.9 ± 0.21 h
MTDLTAQEPAWQTRDHLDDPVIGELRNRFGPDAFTVQATRTGVPVVWIKREQLLEVGDFLKKLPKPYVMLFDLHGMDERLRTHREGLPAADFSVFYHLISIDRNRDIMLKVALAENDLHVPTFTKLFPNANWYERETWDLFGITFDGHPNLRRIMMPQTWKGHPLRKDYPARATEFSPFELTKAKQDLEMEALTFKPEEWGMKRGTENEDFMFLNLGPNHPSAHGAFRIVLQLDGEEIVDCVPDIGYHHRGAEKMGERQSWHSYIPYTDRIEYLGGCVNEMPYVLAVEKLAGITVPDRVNVIRVMLSELFRINSHLLYISTFIQDVGAMTPVFFAFTDRQKIYDLVEAITGFRMHPAWFRIGGVAHDLPRGWDRLLREFLDWMPKRLASYEKAALQNTILKGRSQGVAAYGAKEALEWGTTGAGLRATGIDFDVRKARPYSGYENFDFEIPVGGGVSDCYTRVMLKVEELRQSLRILEQCLNNMPEGPFKADHPLTTPPPKERTLQHIETLITHFLQVSWGPVMPANESFQMIEATKGINSYYLTSDGSTMSYRTRVRTPSFAHLQQIPAAIRGSLVSDLIVYLGSIDFVMSDVDR	6.01 ± 0.11 h	7.18 ± 1.1 h	5.883 ± 0.042 h	6.39 ± 0.17 h	6.2 ± 0.22 h	3.32 ± 0.17 h	6.15 ± 0.1 h	11.43 ± 0.014 h	6.33 ± 0.14 h	12.22 ± 0.12 h	6.224 ± 0.032 h	11.84 ± 0.096 h
MTDMNILDLFLKASLLVKLIMLILIGFSIASWAIIIQRTRILNAAAREAEAFEDKFWSGIELSRLYQESQGKRDNLTGSEQIFYSGFKEFVRLHRANSHAPEAVVEGASRAMRISMNRELENLETHIPFLGTVGSISPYIGLFGTVWGIMHAFIALGAVKQATLQMVAPGIAEALIATAIGLFAAIPAVMAYNRLNQRVNKLELNYDNFMEEFTAILHRQAFTVSESNKG [P0ABU9]	5.8 ± 0.98 h	6.17 ± 0.19 h	7.1 ± 0.95 h	6.83 ± 1.3 h	6.07 ± 0.051 h	3.13 ± 0.22 h	6.078 ± 0.021 h	11.9 ± 1.4 h	5.74 ± 0.16 h	11.6 ± 1.6 h	5.93 ± 0.14 h	12.7 ± 0.76 h
MTDNPNKKTFWDKVHLDPTMLLILLALLVYSALVIWSASGQDIGMMERKIGQIAMGLVIMVVMAQIPPRVYEGWAPYLYIICIILLVAVDAFGAISKGAQRWLDLGIVRFQPSEIAKIAVPLMVARFINRDVCPPSLKNTGIALVLIFMPTLLVAAQPDLGTSILVALSGLFVLFLSGLSWRLIGVAVVLVAAFIPILWFFLMHDYQRQRVMMLLDPESDPLGAGYHIIQSKIAIGSGGLRGKGWLHGTQSQLEFLPERHTDFIFAVLAEELGLVGILILLALYILLIMRGLWIAARAQTTFGRVMAGGLMLILFVYVFVNIGMVSGILPVVGVPLPLVSYGGSALIVLMAGFGIVMSIHTHRKMLSKSV [P0ABG7]	6.32 ± 0.84 h	6.24 ± 0.34 h	5.73 ± 0.093 h	5.59 ± 0.48 h	5.99 ± 0.59 h		5.94 ± 0.34 h		6.47 ± 0.14 h	11.5 ± 1.2 h	5.99 ± 0.21 h	11.9 ± 0.4 h
MTDNTRLRIAMQKSGRLSDDSRELLARCGIKINLHTQRLIAMAENMPIDILRVRDDDIPGLVMDGVVDLGIIGENVLEEELLNRRAQGEDPRYFTLRRLDFGGCRLSLATPVDEAWDGPLSLNGKRIATSYPHLLKRYLDQKGISFKSCLLNGSVEVAPRAGLADAICDLVSTGATLEANGLREVEVIYRSKACLIQRDGEMEESKQQLIDKLLTRIQGVIQARESKYIMMHAPTERLDEVIALLPGAERPTILPLAGDQQRVAMHMVSSETLFWETMEKLKALGASSILVLPIEKMME	3.9 ± 1 h	2.97 ± 0.12 h	3.093 ± 0.014 h	5.11 ± 1.9 h	3.38 ± 0.042 h	2.99 ± 0.52 h	4.94 ± 0.53 h	7.58 ± 0.31 h	3.29 ± 0.1 h	4.73 ± 0.14 h	5.32 ± 0.63 h	11.2 ± 0.66 h
